In article PMC6180346, “Two Faces of CwlM, an Essential PknB Substrate, in Mycobacterium tuberculosis” (Cell Reports, 2018):
Where two headings read alike, the source gives them in different places.

Molecular target: FhaA C-terminal FHA domain (UniProt P71590)

CwlM 378-392 (from UniProt L7N653)
binding against the reference (sites T382): gained
binding against the reference (sites T386): gained
